In paper PMC8920075:

Target: Omikron (Botswana, B.1.1.529) RBD (SARS-CoV-2 (Omicron, B.1.1.529)) (UniProt P0DTC2)
Experiment: ELISA

Which EC50 does the source give for REGN10933 (Casirivimab) (antibody) here?
Its EC50 is 39.4 nM.
